T1: CCDC88B (Homo sapiens (Human), UniProt A6NC98)
T1 chain: QLEEELFQLRQGPAG

T2: MFSD2B (Homo sapiens (Human), UniProt A6NFX1)
T2 chain: DVVDDFQLQHRHGPG

T3: HIF1A (Homo sapiens (Human), UniProt Q16665)
T3 chain: PYIPMDDDFQLRSFDQLS

T4: ROBO1 (Homo sapiens (Human), UniProt Q9Y6N7)
T4 chain: AQSKTQLEVRPV

T5: IRAG1 (Homo sapiens (Human), UniProt Q9Y6F6)
T5 chain: TNSSGKMALNSPQPG

T6: CEP192 (Homo sapiens (Human), UniProt Q8TEP8)
T6 chain: LQPSSKASLESTSDL

T7: USP19 (Homo sapiens (Human), UniProt O94966)
T7 chain: PFQPGRMALESQSPG


Tests used:
Assay in all cases: FP displacement
CCDC88B = target: T1, CCDC88B
MFSD2B = target: T2, MFSD2B
HIF1A = target: T3, HIF1A
ROBO1 = target: T4, ROBO1
IRAG1 = target: T5, IRAG1
CEP192 = target: T6, CEP192
USP19 = target: T7, USP19

Row | Binder | Kd (CCDC88B) | Kd (MFSD2B) | Kd (HIF1A) | Kd (ROBO1) | Kd (IRAG1) | Kd (CEP192) | Kd (USP19)
1 | USP33 (protein) HLYICHTCQIEAEKIEKRRKTELEIFIRLNRAFQKEDSPATFYCISMQWFREWESFVKGKDGDPPGPIDNTKIAVTKCGNVMLRQGADSGQISEETWNFLQSIYGGGPEVILRPPV | 40.1 µM | 0.75 µM | 1.5 µM |  |  |  | 
2 | USP33 (protein) RNHCPHLDSVGEITKEDLIQKSLGTCQDCKVQGPNLWACLENRCSYVGCGESQVDHSTIHSQETKHYLTVNLTTLRVWCYACSKEVFLDRKLGTQ |  |  |  | 14 µM | 7.86 µM | 14.1 µM | 40.6 µM

From publication PMC13376213 (2026)
